{"source": "paper doi:10.1101/151191", "about": "(bioRxiv, 2017)", "proteins": {"B1": {"name": "α-mDelNT (N-terminal half of mouse α-Delphilin) (domain or fragment, UniProt Q0QWG9-2 1-558, looked up)", "chain": "MSCLGIFIPKKHRARFDEVVSQGLLGKLCRARRAQGAQRLRRSRSEERPERLLVSTRASAAPRRPDEPPPRKATSLLGGRTGPGGPRRTVRVYKGNKSFGFTLRGHGPVWIESVLPGSPAENASLKSGDRILFLNGLDMRNCSHDKVVSMLQGSGAMPTLVVEEGPVPFASDSDSLDSPTRASALTSLQWVADILPSSIRVQGRTFSQQLDHLLTPPERYGVCRALERFFQHRNIDTLIVDVYPVLDTPAKQVLWQFLYQLLTYEEQELCQEKIACFLGYTAMTEPESSLDLEPESTPEPTPEPQPRSSLRASSMCRRSLRSQGLETSLSCGPGDCPEMPLPLIPGERQAGDGTSLPETPNPKMMSAVYAELESRLNSSFKGKIGTMSKSRASPPVPSLVGTSGPRTLSGVSWPSDRLLPSPCYDPLCSGGLASPSSSESHPYASLDSSRAPSPQPGLGSIHADSPPSPDPIRPPSRRKLFAFSRPVRSRDTDRFLDALSEQLGPRLSIVDDFLTPENDYEEMSFHDDQGSFVTNERSSASECVSSSEEGSSLTYSSI"}}, "key": {"SEC": {"target": "the molecule itself", "test": "SEC"}, "AUC": {"target": "the molecule itself", "test": "AUC"}}}
{"protein": "B1", "values": [{"measurement": "stoichiometry N", "setting": "SEC", "value": 7, "unit": "subunits"}, {"measurement": "stoichiometry N", "setting": "AUC", "value": 6, "unit": "subunits"}]}
